Measurements reported in the RNAGym collection of RNA variant scans (doi:10.1093/molbev/msab373).

B1: Azoarcus group I ribozyme (parent)
chain: GUGCCUUGCGCCGGGAAACCACGCAAGGGAUGGUGUCAAAUUCGGCGAAACCUAAGCGCCCGCCCGGGCGUAUGGCAACGCCGAGCCAAGCUUCGGCGCCUGCGCCGAUGAAGGUGUAGAGACUAGACGGCACCCACCUAAGGCAAACGCUAUGGUGAAGGCAUAGUCCAGGGAGUGGCGAAAGUCACACAAACCGG

Variants of: B1
Test: reverse-splicing fitness (ratio to wild type); higher = more active; in vitro selection; Mg2+ level not given
Method in brief: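 An in vitro group I ribozyme library with randomized positions was T7-transcribed and gel-purified. In triplicate, 10 pmol RNA in EPPS pH 7.5 was reacted with 50 pmoles of a 30-nt RNA substrate for 1 h at 37 °C across several added MgCl2 levels (1–48 mM), then stopped with EDTA. Products were reverse transcribed from a substrate-complementary primer, PCR-amplified and sequenced (HiSeq 4000). Fitness is a variant's read proportion after selection over that before, normalised to wild type.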

Compared with GUGCCUUGCGCCGGGAAACCACGCAAGGGAUGGUGUCAAAUUCGGCGAAACCUAAGCGCCCGCCCGGGCGUAUGGCAACGCUGAGCCAAGCUUCGGCGCCUGCGCCGAUGCAGGUGUAGCGACUAGACGGCACCCACCUAAGGCUAACGAUAUGGUGAAGGCAUAGUCUAGGGAGCGGCGAAAGUCACACAAACCGG [C82U A111C A120C A145U C150A C169U U176C], GUGCCUUGCGCCGGGAAACCACGCAAGGGAUGGUGUCAAAUUCGGCGAAACCUAAGCGCCCGCCCGGGCGUAUGGCAACGCUGAGCCAAGCUUCGGCGCCUGCGCCGAUGCAGGUGUAGCGACUAGACGGCACCCACCUAAGGCUAACGAUAUGGUGAAGGCAUAGUCUAGGGAGGGGCGAAAGUCACACAAACCGG [C82U A111C A120C A145U C150A C169U U176G] is lower in reverse-splicing fitness: 0.014 for the first, 0.00706 for the second.

Compared with GUGCCUUGCGCCGGGAAACCACGCAAGGGAUGGUGUCAAAUUCGGCGAAACCUAAGCGCCCGCCCGGGCGUAUGGCAACGCUGAGCCAAGCUUCGGCGCCUGCGCCGAUGCAGGUGUAGCGACUAGACGGCACCCACCUAAGGCUAACGAUAUGGUGAAGGCAUAGUCUAGGGAGAGGCGAAAGUCACACAAACCGG [C82U A111C A120C A145U C150A C169U U176A], GUGCCUUGCGCCGGGAAACCACGCAAGGGAUGGUGUCAAAUUCGGCGAAACCUAAGCGCCCGCCCGGGCGUAUGGCAACGCUGAGCCAAGCUUCGGCGCCUGCGCCGAUGCAGGUGUAGCGACUAGACGGCACCCACCUAAGGCUAACGCUAUGGUGAAGGCAUAGUCCAGGGAGUGGCGAAAGUCACACAAACCGG [C82U A111C A120C A145U] is higher in reverse-splicing fitness: 0.0184 for the first, 0.028 for the second.

Compared with GUGCCUUGCGCCGGGAAACCACGCAAGGGAUGGUGUCAAAUUCGGCGAAACCUAAGCGCCCGCCCGGGCGUAUGGCAACGCUGAGCCAAGCUUCGGCGCCUGCGCCGAUGCAGGUGUAGCGACUAGACGGCACCCACCUAAGGCUAACGAUAUGGUGAAGGCAUAGUCAAGGGAGUGGCGAAAGUCACACAAACCGG [C82U A111C A120C A145U C150A C169A], GUGCCUUGCGCCGGGAAACCACGCAAGGGAUGGUGUCAAAUUCGGCGAAACCUAAGCGCCCGCCCGGGCGUAUGGCAACGCUGAGCCAAGCUUCGGCGCCUGCGCCGAUGCAGGUGUAGCGACUAGACGGCACCCACCUAAGGCUAACGAUAUGGUGAAGGCAUAGUCGAGGGAGUGGCGAAAGUCACACAAACCGG [C82U A111C A120C A145U C150A C169G] is lower in reverse-splicing fitness: 0.00776 for the first, 0.00745 for the second.

First: GUGCCUUGCGCCGGGAAACCACGCAAGGGAUGGUGUCAAAUUCGGCGAAACCUAAGCGCCCGCCCGGGCGUAUGGCAACGCUGAGCCAAGCUUCGGCGCCUGCGCCGAUGCAGGUGUAGCGACUAGACGGCACCCACCUAAGGCUAACGAUAUGGUGAAGGCAUAGUCUAGGGAGUGGCGAAAGUCACACAAACCGG [C82U A111C A120C A145U C150A C169U]
Second: GUGCCUUGCGCCGGGAAACCACGCAAGGGAUGGUGUCAAAUUCGGCGAAACCUAAGCGCCCGCCCGGGCGUAUGGCAACGCUGAGCCAAGCUUCGGCGCCUGCGCCGAUGCAGGUGUAGCGACUAGACGGCACCCACCUAAGGCUAACGAUAUGGUGAAGGCAUAGUCCAGGGAGGGGCGAAAGUCACACAAACCGG [C82U A111C A120C A145U C150A U176G]
The reverse-splicing fitness of the first is higher: 0.0101 for the first, 0.00561 for the second.

First: GUGCCUUGCGCCGGGAAACCACGCAAGGGAUGGUGUCAAAUUCGGCGAAACCUAAGCGCCCGCCCGGGCGUAUGGCAACGCUGAGCCAAGCUUCGGCGCCUGCGCCGAUGCAGGUGUAGCGACUAGACGGCACCCACCUAAGGCUAACGAUAUGGUGAAGGCAUAGUCCAGGGAGAGGCGAAAGUCACACAAACCGG [C82U A111C A120C A145U C150A U176A]
Second: GUGCCUUGCGCCGGGAAACCACGCAAGGGAUGGUGUCAAAUUCGGCGAAACCUAAGCGCCCGCCCGGGCGUAUGGCAACGCUGAGCCAAGCUUCGGCGCCUGCGCCGAUGCAGGUGUAGCGACUAGACGGCACCCACCUAAGGCUAACGAUAUGGUGAAGGCAUAGUCCAGGGAGCGGCGAAAGUCACACAAACCGG [C82U A111C A120C A145U C150A U176C]
The reverse-splicing fitness of the first is lower: 0.00905 for the first, 0.0135 for the second.

First: GUGCCUUGCGCCGGGAAACCACGCAAGGGAUGGUGUCAAAUUCGGCGAAACCUAAGCGCCCGCCCGGGCGUAUGGCAACGCUGAGCCAAGCUUCGGCGCCUGCGCCGAUGCAGGUGUAGCGACUAGACGGCACCCACCUAAGGCGAACGCUAUGGUGAAGGCAUAGUCUAGGGAGCGGCGAAAGUCACACAAACCGG [C82U A111C A120C A145G C169U U176C]
Second: GUGCCUUGCGCCGGGAAACCACGCAAGGGAUGGUGUCAAAUUCGGCGAAACCUAAGCGCCCGCCCGGGCGUAUGGCAACGCUGAGCCAAGCUUCGGCGCCUGCGCCGAUGCAGGUGUAGCGACUAGACGGCACCCACCUAAGGCGAACGCUAUGGUGAAGGCAUAGUCUAGGGAGGGGCGAAAGUCACACAAACCGG [C82U A111C A120C A145G C169U U176G]
The reverse-splicing fitness of the first is higher: 0.0159 for the first, 0.00573 for the second.

Going from GUGCCUUGCGCCGGGAAACCACGCAAGGGAUGGUGUCAAAUUCGGCGAAACCUAAGCGCCCGCCCGGGCGUAUGGCAACGCUGAGCCAAGCUUCGGCGCCUGCGCCGAUGCAGGUGUAGCGACUAGACGGCACCCACCUAAGGCGAACGCUAUGGUGAAGGCAUAGUCUAGGGAGAGGCGAAAGUCACACAAACCGG [C82U A111C A120C A145G C169U U176A] to GUGCCUUGCGCCGGGAAACCACGCAAGGGAUGGUGUCAAAUUCGGCGAAACCUAAGCGCCCGCCCGGGCGUAUGGCAACGCUGAGCCAAGCUUCGGCGCCUGCGCCGAUGCAGGUGUAGCGACUAGACGGCACCCACCUAAGGCGAACGCUAUGGUGAAGGCAUAGUCUAGGGAGUGGCGAAAGUCACACAAACCGG [C82U A111C A120C A145G C169U], the reverse-splicing fitness falls from 0.0159 to 0.0129.

For GUGCCUUGCGCCGGGAAACCACGCAAGGGAUGGUGUCAAAUUCGGCGAAACCUAAGCGCCCGCCCGGGCGUAUGGCAACGCUGAGCCAAGCUUCGGCGCCUGCGCCGAUGCAGGUGUAGCGACUAGACGGCACCCACCUAAGGCGAACGCUAUGGUGAAGGCAUAGUCGAGGGAGUGGCGAAAGUCACACAAACCGG [C82U A111C A120C A145G C169G], the reverse-splicing fitness was 0.00841.
